No end group written: not given here. *: point of attachment. MTX = methotrexate, its gamma-carboxylic acid amide-linked to the peptide N-terminus, CN(Cc1cnc2nc(N)nc(N)c2n1)c1ccc(C(=O)N[C@@H](CCC(=O)*)C(=O)O)cc1
The binders below were run against dihydrofolate reductase enzyme (DHFR) (assay: cell-based or functional assay).

Row | Km relative to MTX (Dixon plot, DHFR inhibition assay) [fold] | Binder
1 | ~4 | {MTX}-QTSVSPSKVI (also: cyclic peptide, ring not given here) [MTX-cIBL conjugate]
2 | ~15 | {MTX}-LPRGGSVLVT (also: cyclic peptide, ring closure not given here) [MTX-cIBR conjugate (methotrexate-cyclo-Leu Pro Arg Gly Gly Ser Val Leu Val Thr)]

These binders were tested against LFA-1 on mouse L1210 T-cells (mouse, UniProt P24063 24-1162; P11835 24-771) (assay: cell-based or functional assay).
LFA-1 on mouse L1210 T-cells, sequence (P24063 24-1162, chain 1 of 2): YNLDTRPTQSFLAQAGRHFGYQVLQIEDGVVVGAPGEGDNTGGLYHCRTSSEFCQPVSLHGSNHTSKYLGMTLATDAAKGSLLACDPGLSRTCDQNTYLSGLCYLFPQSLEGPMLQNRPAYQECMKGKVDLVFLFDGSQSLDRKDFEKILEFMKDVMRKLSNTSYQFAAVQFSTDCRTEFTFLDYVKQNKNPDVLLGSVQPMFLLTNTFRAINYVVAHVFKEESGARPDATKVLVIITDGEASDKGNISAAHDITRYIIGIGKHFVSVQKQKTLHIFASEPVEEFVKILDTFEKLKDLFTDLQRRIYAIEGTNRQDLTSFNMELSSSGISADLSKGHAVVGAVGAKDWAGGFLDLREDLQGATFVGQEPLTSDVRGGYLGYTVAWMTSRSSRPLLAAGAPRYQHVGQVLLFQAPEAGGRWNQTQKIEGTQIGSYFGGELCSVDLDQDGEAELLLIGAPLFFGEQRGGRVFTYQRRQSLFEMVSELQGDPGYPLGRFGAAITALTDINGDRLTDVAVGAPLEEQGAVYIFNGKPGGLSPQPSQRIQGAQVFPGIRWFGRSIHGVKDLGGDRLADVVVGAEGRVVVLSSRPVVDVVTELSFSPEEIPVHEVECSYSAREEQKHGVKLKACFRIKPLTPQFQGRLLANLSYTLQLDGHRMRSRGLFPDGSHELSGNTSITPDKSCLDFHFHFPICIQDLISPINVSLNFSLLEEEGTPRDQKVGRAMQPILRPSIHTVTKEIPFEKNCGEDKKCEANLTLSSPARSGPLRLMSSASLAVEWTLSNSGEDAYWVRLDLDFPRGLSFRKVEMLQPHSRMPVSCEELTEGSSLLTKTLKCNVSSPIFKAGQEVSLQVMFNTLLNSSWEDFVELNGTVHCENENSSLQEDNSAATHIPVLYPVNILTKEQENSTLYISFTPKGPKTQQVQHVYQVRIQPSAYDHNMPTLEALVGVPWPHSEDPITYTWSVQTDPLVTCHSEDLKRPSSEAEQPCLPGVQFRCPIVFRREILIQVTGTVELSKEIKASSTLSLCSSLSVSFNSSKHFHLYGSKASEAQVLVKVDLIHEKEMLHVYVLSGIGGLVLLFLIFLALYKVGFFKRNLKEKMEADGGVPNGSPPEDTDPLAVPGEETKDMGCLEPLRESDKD
LFA-1 on mouse L1210 T-cells, sequence (P11835 24-771, chain 2 of 2): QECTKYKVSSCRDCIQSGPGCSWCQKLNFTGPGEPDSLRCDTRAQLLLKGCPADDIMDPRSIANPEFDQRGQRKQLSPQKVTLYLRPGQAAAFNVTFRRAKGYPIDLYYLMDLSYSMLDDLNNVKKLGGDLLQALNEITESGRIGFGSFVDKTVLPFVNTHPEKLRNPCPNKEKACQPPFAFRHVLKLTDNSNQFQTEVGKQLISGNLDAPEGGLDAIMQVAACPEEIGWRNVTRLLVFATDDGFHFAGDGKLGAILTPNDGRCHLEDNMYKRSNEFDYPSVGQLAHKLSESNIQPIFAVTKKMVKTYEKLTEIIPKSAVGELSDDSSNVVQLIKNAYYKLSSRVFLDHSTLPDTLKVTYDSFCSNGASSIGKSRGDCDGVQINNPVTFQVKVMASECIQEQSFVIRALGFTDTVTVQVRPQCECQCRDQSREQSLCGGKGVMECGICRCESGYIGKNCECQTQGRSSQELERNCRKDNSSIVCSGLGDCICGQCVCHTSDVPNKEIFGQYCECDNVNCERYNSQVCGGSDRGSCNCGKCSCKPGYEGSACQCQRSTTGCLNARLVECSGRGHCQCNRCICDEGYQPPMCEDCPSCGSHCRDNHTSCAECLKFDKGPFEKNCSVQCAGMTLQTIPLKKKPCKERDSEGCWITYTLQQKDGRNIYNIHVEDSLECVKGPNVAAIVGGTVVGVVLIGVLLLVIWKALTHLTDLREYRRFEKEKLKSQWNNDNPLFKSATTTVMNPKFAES

Row | Binder | IC50 in micromolar, growth inhibition, L1210 mouse leukemia cells [µM]
3 | {MTX}-PRGGSV-NH2 [MTX-PRGGSV] | 1.6
4 | {MTX}-VILPRG-NH2 [MTX-VILPRG] | 0.7

Next, values leading:

Row | IC50 in micromolar, growth inhibition, L1210 mouse leukemia cells [µM] | Binder
5 | 9.14 | {MTX}-QTSVSPSKVI (also: cyclic peptide, ring not given here) [MTX-cIBL conjugate]
6 | 5.5 | {MTX}-LPRGGSVLVT (also: cyclic peptide, ring closure not given here) [MTX-cIBR conjugate (methotrexate-cyclo-Leu Pro Arg Gly Gly Ser Val Leu Val Thr)]

Each binder was assayed against LFA-1 receptor on human Molt-3 T-cells (human, UniProt P20701 26-1170; P05107 23-769) (assay: cell-based or functional assay).
LFA-1 receptor on human Molt-3 T-cells, sequence (P20701 26-1170, chain 1 of 2): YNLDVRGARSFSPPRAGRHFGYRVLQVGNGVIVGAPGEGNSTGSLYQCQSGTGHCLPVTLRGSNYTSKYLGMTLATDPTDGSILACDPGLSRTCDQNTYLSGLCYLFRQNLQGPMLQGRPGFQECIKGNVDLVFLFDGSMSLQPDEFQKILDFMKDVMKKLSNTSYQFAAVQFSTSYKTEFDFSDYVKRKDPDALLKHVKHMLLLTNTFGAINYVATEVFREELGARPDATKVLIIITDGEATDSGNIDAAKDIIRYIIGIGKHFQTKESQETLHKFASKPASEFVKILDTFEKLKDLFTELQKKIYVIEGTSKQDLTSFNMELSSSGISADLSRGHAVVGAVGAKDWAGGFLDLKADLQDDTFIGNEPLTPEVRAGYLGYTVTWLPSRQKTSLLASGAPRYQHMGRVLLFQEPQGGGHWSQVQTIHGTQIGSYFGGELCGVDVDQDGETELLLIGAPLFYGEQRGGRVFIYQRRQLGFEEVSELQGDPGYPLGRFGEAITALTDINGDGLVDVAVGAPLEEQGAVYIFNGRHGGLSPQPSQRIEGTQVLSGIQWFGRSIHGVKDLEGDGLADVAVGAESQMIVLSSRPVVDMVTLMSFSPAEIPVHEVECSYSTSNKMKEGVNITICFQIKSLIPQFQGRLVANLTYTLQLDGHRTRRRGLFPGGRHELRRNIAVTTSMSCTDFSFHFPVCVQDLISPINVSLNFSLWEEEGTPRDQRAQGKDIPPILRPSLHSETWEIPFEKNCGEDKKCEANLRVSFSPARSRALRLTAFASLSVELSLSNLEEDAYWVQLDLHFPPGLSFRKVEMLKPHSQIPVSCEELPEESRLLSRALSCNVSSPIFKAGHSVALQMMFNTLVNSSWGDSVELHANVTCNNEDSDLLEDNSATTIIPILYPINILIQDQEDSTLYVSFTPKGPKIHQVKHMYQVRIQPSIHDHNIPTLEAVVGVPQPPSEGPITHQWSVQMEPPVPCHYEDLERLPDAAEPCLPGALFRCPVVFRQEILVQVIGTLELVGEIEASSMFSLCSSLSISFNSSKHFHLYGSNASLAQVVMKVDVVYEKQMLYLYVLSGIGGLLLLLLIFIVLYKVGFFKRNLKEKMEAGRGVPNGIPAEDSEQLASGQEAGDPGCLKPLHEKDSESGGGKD
LFA-1 receptor on human Molt-3 T-cells, sequence (P05107 23-769, chain 2 of 2): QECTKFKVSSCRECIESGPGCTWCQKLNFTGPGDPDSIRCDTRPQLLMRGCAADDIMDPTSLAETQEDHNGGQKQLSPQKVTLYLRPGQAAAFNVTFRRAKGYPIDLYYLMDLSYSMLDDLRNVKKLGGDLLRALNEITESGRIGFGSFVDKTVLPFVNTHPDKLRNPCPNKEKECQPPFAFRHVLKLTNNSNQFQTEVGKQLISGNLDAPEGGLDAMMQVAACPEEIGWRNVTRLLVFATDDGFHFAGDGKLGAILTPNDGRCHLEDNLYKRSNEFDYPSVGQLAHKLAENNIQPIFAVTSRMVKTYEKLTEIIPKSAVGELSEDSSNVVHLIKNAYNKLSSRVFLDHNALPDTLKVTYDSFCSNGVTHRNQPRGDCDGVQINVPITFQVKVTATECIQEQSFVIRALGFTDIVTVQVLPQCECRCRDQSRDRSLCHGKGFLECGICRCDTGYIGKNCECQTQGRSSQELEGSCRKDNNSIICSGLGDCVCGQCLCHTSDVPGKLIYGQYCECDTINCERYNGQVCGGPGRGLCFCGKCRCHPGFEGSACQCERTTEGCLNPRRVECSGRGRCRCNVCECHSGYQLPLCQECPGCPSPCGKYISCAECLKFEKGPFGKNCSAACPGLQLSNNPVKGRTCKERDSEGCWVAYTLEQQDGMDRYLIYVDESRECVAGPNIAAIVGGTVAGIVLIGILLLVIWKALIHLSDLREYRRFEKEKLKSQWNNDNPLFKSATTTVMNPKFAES

Row | Binder | IC50 in micromolar, cytotoxicity, Molt-3 T-cells [µM]
7 | {MTX}-PRGGSV-NH2 [MTX-PRGGSV] | 5.13
8 | {MTX}-QTSVSPSKVI (also: cyclic peptide, ring not given here) [MTX-cIBL conjugate] | 2.68
9 | {MTX}-LPRGGSVLVT (also: cyclic peptide, ring closure not given here) [MTX-cIBR conjugate (methotrexate-cyclo-Leu Pro Arg Gly Gly Ser Val Leu Val Thr)] | 2.75
10 | {MTX}-VILPRG-NH2 [MTX-VILPRG] | 9.12
